The target of test [1] is T1, amyloid-β 42 (UniProt P05067 672-713). Nature of the test: NMR titration.
Test [2] deals with T1, amyloid-β 42. Nature of the test: native MS.

B1: 15N-labeled Cyt c with 104 amino acid residues (natural protein)
chain: not shown
modifications: 15N-labeled; covalently attached heme group
On to B1, for which the binding result with amyloid-β 42 [1] is on record as “binds”.

B2: Cytochrome c (natural protein)
chain: not shown
modifications: covalently attached heme group
In the case of B2, the “stoichiometry N” value with amyloid-β 42 [2] is 1 Cyt c : Aβ42.
